Key:
human proinsulin (human) [1] = target: human proinsulin (human) (UniProt P01308); assay: competitive RIA, PEP001-coated tubes, 125I-Tyr-C-peptide; serum E1 overloaded with 0.16 pmol/ml proinsulin; no AC1D4
human proinsulin (human) [2] = target: human proinsulin (human) (UniProt P01308); assay: competitive RIA, PEP001-coated tubes, 125I-Tyr-C-peptide; serum E1 overloaded with 3.33 pmol/ml proinsulin; no AC1D4
human proinsulin (human) [3] = target: human proinsulin (human) (UniProt P01308); assay: competitive RIA, PEP001-coated tubes, 125I-Tyr-C-peptide; serum E2 overloaded with 3.33 pmol/ml proinsulin; no AC1D4
des-31,32-proinsulin [4] = target: des-31,32-proinsulin (UniProt P01308); assay: sandwich immunoenzymatic C-peptide assay: PEP001 beads, goat polyclonal anti-C-peptide-alkaline phosphatase; no AC1D4
des-64,65-proinsulin [5] = target: des-64,65-proinsulin (UniProt P01308); assay: as above
human proinsulin (human) [6] = target: human proinsulin (human) (UniProt P01308); assay: as above
des-31,32-proinsulin [7] = target: des-31,32-proinsulin (UniProt P01308); assay: competitive RIA, PEP001-coated tubes, 125I-Tyr-C-peptide; serum E1 overloaded with 3.33 pmol/ml des-31,32-proinsulin; no AC1D4
des-31,32-proinsulin [8] = target: des-31,32-proinsulin (UniProt P01308); assay: competitive RIA, PEP001-coated tubes, 125I-Tyr-C-peptide; serum E2 overloaded with 3.33 pmol/ml des-31,32-proinsulin; no AC1D4
des-64,65-proinsulin [9] = target: des-64,65-proinsulin (UniProt P01308); assay: competitive RIA, PEP001-coated tubes, 125I-Tyr-C-peptide; serum E1 overloaded with 0.67 pmol/ml des-64,65-proinsulin; no AC1D4
des-64,65-proinsulin [10] = target: des-64,65-proinsulin (UniProt P01308); assay: competitive RIA, PEP001-coated tubes, 125I-Tyr-C-peptide; serum E1 overloaded with 3.33 pmol/ml des-64,65-proinsulin; no AC1D4
des-64,65-proinsulin [11] = target: des-64,65-proinsulin (UniProt P01308); assay: competitive RIA, PEP001-coated tubes, 125I-Tyr-C-peptide; serum E2 overloaded with 0.67 pmol/ml des-64,65-proinsulin; no AC1D4
human proinsulin (human) [12] = target: human proinsulin (human) (UniProt P01308); assay: competitive RIA, PEP001-coated tubes, 125I-Tyr-C-peptide; serum E1 overloaded with 0.16 pmol/ml proinsulin; competitor AC1D4 20 µg/ml
human proinsulin (human) [13] = target: human proinsulin (human) (UniProt P01308); assay: competitive RIA, PEP001-coated tubes, 125I-Tyr-C-peptide; serum E1 overloaded with 3.33 pmol/ml proinsulin; competitor AC1D4 20 µg/ml
human proinsulin (human) [14] = target: human proinsulin (human) (UniProt P01308); assay: competitive RIA, PEP001-coated tubes, 125I-Tyr-C-peptide; serum E2 overloaded with 0.16 pmol/ml proinsulin; competitor AC1D4 20 µg/ml
des-31,32-proinsulin [15] = target: des-31,32-proinsulin (UniProt P01308); assay: sandwich immunoenzymatic C-peptide assay: PEP001 beads, goat polyclonal anti-C-peptide-alkaline phosphatase; competitor AC1D4 20 µg/ml
des-64,65-proinsulin [16] = target: des-64,65-proinsulin (UniProt P01308); assay: as above
human proinsulin (human) [17] = target: human proinsulin (human) (UniProt P01308); assay: as above
des-31,32-proinsulin [18] = target: des-31,32-proinsulin (UniProt P01308); assay: competitive RIA, PEP001-coated tubes, 125I-Tyr-C-peptide; serum E1 overloaded with 0.67 pmol/ml des-31,32-proinsulin; competitor AC1D4 20 µg/ml
des-31,32-proinsulin [19] = target: des-31,32-proinsulin (UniProt P01308); assay: competitive RIA, PEP001-coated tubes, 125I-Tyr-C-peptide; serum E2 overloaded with 0.16 pmol/ml des-31,32-proinsulin; competitor AC1D4 20 µg/ml
des-31,32-proinsulin [20] = target: des-31,32-proinsulin (UniProt P01308); assay: competitive RIA, PEP001-coated tubes, 125I-Tyr-C-peptide; serum E2 overloaded with 0.67 pmol/ml des-31,32-proinsulin; competitor AC1D4 20 µg/ml
des-64,65-proinsulin [21] = target: des-64,65-proinsulin (UniProt P01308); assay: competitive RIA, PEP001-coated tubes, 125I-Tyr-C-peptide; serum E1 overloaded with 0.67 pmol/ml des-64,65-proinsulin; competitor AC1D4 20 µg/ml
des-64,65-proinsulin [22] = target: des-64,65-proinsulin (UniProt P01308); assay: competitive RIA, PEP001-coated tubes, 125I-Tyr-C-peptide; serum E1 overloaded with 3.33 pmol/ml des-64,65-proinsulin; competitor AC1D4 20 µg/ml
des-64,65-proinsulin [23] = target: des-64,65-proinsulin (UniProt P01308); assay: competitive RIA, PEP001-coated tubes, 125I-Tyr-C-peptide; serum E2 overloaded with 0.16 pmol/ml des-64,65-proinsulin; competitor AC1D4 20 µg/ml
des-64,65-proinsulin [24] = target: des-64,65-proinsulin (UniProt P01308); assay: competitive RIA, PEP001-coated tubes, 125I-Tyr-C-peptide; serum E2 overloaded with 0.67 pmol/ml des-64,65-proinsulin; competitor AC1D4 20 µg/ml
des-64,65-proinsulin [25] = target: des-64,65-proinsulin (UniProt P01308); assay: competitive RIA, PEP001-coated tubes, 125I-Tyr-C-peptide; serum E2 overloaded with 3.33 pmol/ml des-64,65-proinsulin; competitor AC1D4 20 µg/ml
des-31,32-proinsulin [26] = target: des-31,32-proinsulin (UniProt P01308); assay: sandwich immunoenzymatic C-peptide assay: PEP001 beads, goat polyclonal conjugate; competitors AC1D4 + BC9B6 in equal quantities, 40 µg/ml
des-64,65-proinsulin [27] = target: des-64,65-proinsulin (UniProt P01308); assay: as above
human proinsulin (human) [28] = target: human proinsulin (human) (UniProt P01308); assay: as above

- Increase after overload (%) (human proinsulin (human) [1]): 15%
- Increase after overload (%) (human proinsulin (human) [2]): 288%
- Increase after overload (%) (human proinsulin (human) [3]): 54%
- percentage of cross reaction (des-31,32-proinsulin [4]): 108%
- percentage of cross reaction (des-64,65-proinsulin [5]): 94%
- percentage of cross reaction (human proinsulin (human) [6]): 92%
- Increase after overload (%) (des-31,32-proinsulin [7]): 213%
- Increase after overload (%) (des-31,32-proinsulin [8]): 59%
- Increase after overload (%) (des-64,65-proinsulin [9]): 49%
- Increase after overload (%) (des-64,65-proinsulin [10]): 267%
- Increase after overload (%) (des-64,65-proinsulin [11]): 9%
- Increase after overload (%) (human proinsulin (human) [12]): 0%
- Increase after overload (%) (human proinsulin (human) [13]): 31%
- Increase after overload (%) (human proinsulin (human) [14]): 0%
- percentage of cross reaction (des-31,32-proinsulin [15]): 16%
- percentage of cross reaction (des-64,65-proinsulin [16]): 85%
- percentage of cross reaction (human proinsulin (human) [17]): 8%
- Increase after overload (%) (des-31,32-proinsulin [18]): 12%
- Increase after overload (%) (des-31,32-proinsulin [19]): 0%
- Increase after overload (%) (des-31,32-proinsulin [20]): 5%
- Increase after overload (%) (des-64,65-proinsulin [21]): 63%
- Increase after overload (%) (des-64,65-proinsulin [22]): 242%
- Increase after overload (%) (des-64,65-proinsulin [23]): 0%
- Increase after overload (%) (des-64,65-proinsulin [24]): 18%
- Increase after overload (%) (des-64,65-proinsulin [25]): 69%
- percentage of cross reaction (des-31,32-proinsulin [26]): 13%
- percentage of cross reaction (des-64,65-proinsulin [27]): 7%
- percentage of cross reaction (human proinsulin (human) [28]): 18%
Substance: PEP001 anti-C-peptide monoclonal antibody

Source: patent US20050037448A1
